These results are taken from PMC5735978, “PAK6 Phosphorylates 14-3-3γ to Regulate Steady State Phosphorylation of LRRK2” (Frontiers in Molecular Neuroscience, 2017).

In data set [1] the target is T1, 3xFlag-PAK6 wild-type (UniProt Q9NQU5 1-681, autophosphorylated; phospho-Ser560 monitored by western blot).
T1 construct: construct as described in Civiero et al., 2015; source: HEK293T, transfected; in lysate (immunoprecipitation) and immunopurified on anti-Flag resin (pull-down, overlay)
Put plainly: far-Western, overlay or dot blot; immunopurified Flag-tagged PAK6 or LRRK2 separated by SDS-PAGE and blotted onto nitrocellulose; incubated with purified His-14-3-3s at 1 μg/ml in 5% BSA in TBS-T overnight at 4°C; anti-His detection. Conditions: both partners purified.

Data set [2] deals with T1, 3xFlag-PAK6 wild-type. Put plainly: pull-down; Flag-purified PAK6 bound to anti-Flag resin incubated for 2 h with purified His-14-3-3 isoforms (1 μM); bound 14-3-3s revealed with anti-His antibody. Particulars: both partners purified.
The target in data set [3] is T2, 3xFlag-PAK6 S531N (UniProt Q9NQU5 1-681, S531N, autophosphorylated; phospho-Ser560 monitored by western blot).
T2 construct: PAK6, constitutively active variant; construct as described in Civiero et al., 2015; also called active variant S531N; source: HEK293T, transfected; in lysate (immunoprecipitation) and immunopurified (overlay)
In words: far-Western, overlay or dot blot; immunopurified Flag-tagged PAK6 or LRRK2 separated by SDS-PAGE and blotted onto nitrocellulose; incubated with purified His-14-3-3s at 1 μg/ml in 5% BSA in TBS-T overnight at 4°C; anti-His detection. Particulars: both partners purified.

Data set [4] deals with the molecule itself. In words: native gel or EMSA; blue native gel (4-16%) of purified His-14-3-3γ wild-type, S59D and T145D; 5 μg of protein loaded; Coomassie staining.

T1 sequence (Q9NQU5 whole entry): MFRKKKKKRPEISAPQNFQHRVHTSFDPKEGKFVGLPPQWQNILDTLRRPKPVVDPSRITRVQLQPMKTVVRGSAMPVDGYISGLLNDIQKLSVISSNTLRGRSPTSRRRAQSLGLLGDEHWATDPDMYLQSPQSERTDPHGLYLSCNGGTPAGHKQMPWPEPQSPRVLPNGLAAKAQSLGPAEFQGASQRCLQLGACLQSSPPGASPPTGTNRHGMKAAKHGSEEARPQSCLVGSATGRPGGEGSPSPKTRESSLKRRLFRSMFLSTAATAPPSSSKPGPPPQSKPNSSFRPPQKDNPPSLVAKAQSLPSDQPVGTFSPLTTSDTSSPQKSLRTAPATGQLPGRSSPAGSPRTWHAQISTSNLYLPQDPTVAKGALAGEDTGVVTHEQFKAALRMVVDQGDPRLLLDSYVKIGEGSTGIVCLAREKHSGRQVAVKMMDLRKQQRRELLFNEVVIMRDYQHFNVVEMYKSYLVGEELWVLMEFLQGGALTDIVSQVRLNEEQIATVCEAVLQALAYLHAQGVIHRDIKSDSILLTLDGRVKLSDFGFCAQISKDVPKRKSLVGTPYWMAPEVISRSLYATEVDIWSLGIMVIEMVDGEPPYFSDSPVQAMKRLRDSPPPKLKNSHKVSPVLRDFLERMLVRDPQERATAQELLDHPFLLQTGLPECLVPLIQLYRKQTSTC
T2 sequence (Q9NQU5 whole entry S531N): as the sequence (Q9NQU5 whole entry) above, with S531N counted along it

B1: 6xHis-14-3-3 zeta (natural protein, human, UniProt P63104 1-245, looked up)
chain: MDKNELVQKAKLAEQAERYDDMAACMKSVTEQGAELSNEERNLLSVAYKNVVGARRSSWRVVSSIEQKTEGAEKKQQMAREYREKIETELRDICNDVLSLLEKFLIPNASQAESKVFYLKMKGDYYRYLAEVAAGDDKKGIVDQSQQAYQEAFEISKKEMQPTHPIRLGLALNFSVFYYEILNSPEKACSLAKTAFDEAIAELDTLSEESYKDSTLIMQLLRDNLTLWTSDTQGDEAEAGEGGEN
notes: 14-3-3 protein zeta, cloned in pET28a(+) by PCR from a mammalian expression plasmid (Prof. Dario Alessi); also called His-14-3-3ζ; source: E. coli BL21(DE3), purified (IMAC, ProBond resin; PD10 desalting); not shown: 6xHis, N-terminal, kept
On to B1, for which, in data set [1], the binding result is recorded as “binds”.

B2: 6xHis-14-3-3γ wild-type (natural protein, human, UniProt P61981 1-247, looked up)
chain: MVDREQLVQKARLAEQAERYDDMAAAMKNVTELNEPLSNEERNLLSVAYKNVVGARRSSWRVISSIEQKTSADGNEKKIEMVRAYREKIEKELEAVCQDVLSLLDNYLIKNCSETQYESKVFYLKMKGDYYRYLAEVATGEKRATVVESSEKAYSEAHEISKEHMQPTHPIRLGLALNYSVFYYEIQNAPEQACHLAKTAFDDAIAELDTLNEDSYKDSTLIMQLLRDNLTLWTSDQQDDDGGEGNN
notes: 14-3-3 protein gamma, cloned in pET28a(+) by PCR from a mammalian expression plasmid (Prof. Dario Alessi); runs around the size of the dimer on blue native gels; also called recombinant 14-3-3γ; 14-3-3 gamma; source: E. coli BL21(DE3), purified (IMAC, ProBond resin; PD10 desalting); not shown: 6xHis, N-terminal, kept
Regarding B2, the binding result in data set [2] is on record as “binds”. Further, the “fold affinity against PAK6 wild-type” value in data set [3] came out at 2 fold.

B3: His-14-3-3γ T145D (natural protein, human, UniProt P61981 1-247, looked up)
chain: MVDREQLVQKARLAEQAERYDDMAAAMKNVTELNEPLSNEERNLLSVAYKNVVGARRSSWRVISSIEQKTSADGNEKKIEMVRAYREKIEKELEAVCQDVLSLLDNYLIKNCSETQYESKVFYLKMKGDYYRYLAEVATGEKRADVVESSEKAYSEAHEISKEHMQPTHPIRLGLALNYSVFYYEIQNAPEQACHLAKTAFDDAIAELDTLNEDSYKDSTLIMQLLRDNLTLWTSDQQDDDGGEGNN
notes: 14-3-3 protein gamma, phosphomimetic mutant; also called S145D (as once printed); source: E. coli BL21(DE3), purified (IMAC); not shown: 6xHis, N-terminal, kept
Regarding B3, the binding result in data set [4] is “binds”.

B4: 6xHis-14-3-3 theta (natural protein, human, UniProt P27348 1-245, looked up)
chain: MEKTELIQKAKLAEQAERYDDMATCMKAVTEQGAELSNEERNLLSVAYKNVVGGRRSAWRVISSIEQKTDTSDKKLQLIKDYREKVESELRSICTTVLELLDKYLIANATNPESKVFYLKMKGDYFRYLAEVACGDDRKQTIDNSQGAYQEAFDISKKEMQPTHPIRLGLALNFSVFYYEILNNPELACTLAKTAFDEAIAELDTLNEDSYKDSTLIMQLLRDNLTLWTSDSAGEECDAAEGAEN
notes: 14-3-3 protein theta, cloned in pET28a(+) by PCR from a mammalian expression plasmid (Prof. Dario Alessi); also called His-14-3-3θ; source: E. coli BL21(DE3), purified (IMAC, ProBond resin; PD10 desalting); not shown: 6xHis, N-terminal, kept
In the case of B4, in data set [1], the binding result is reported as “binds”.
